Measured values reported in article PMC2425489.

How the values were obtained:
Hoxa1(WM-AA);Pbx1a = Hoxa1(WM-AA);Pbx1a (mouse?;, UniProt P09022;P41778 1-331;1-430, W203A;M204A|); experiment: EMSA
Hoxa2(QN-AA) (Hoxa2*) = Hoxa2(QN-AA) (Hoxa2*) (UniProt P31245 1-372, Q188A;N189A); experiment: EMSA
Hoxa1 = Hoxa1 (UniProt P09022 1-331); experiment: EMSA
Hoxa1(WM-AA) = Hoxa1(WM-AA) (UniProt P09022 1-331, W203A;M204A); experiment: EMSA
[1] = biological target: Hoxa2(QN-AA) (Hoxa2*);Pbx1a (mouse?;, UniProt P31245;P41778 1-372;1-430, Q188A;N189A|); experiment: EMSA
Sequence of Hoxa2(QN-AA) (Hoxa2*);Pbx1a (P31245 whole entry Q188A/N189A, one chain of several): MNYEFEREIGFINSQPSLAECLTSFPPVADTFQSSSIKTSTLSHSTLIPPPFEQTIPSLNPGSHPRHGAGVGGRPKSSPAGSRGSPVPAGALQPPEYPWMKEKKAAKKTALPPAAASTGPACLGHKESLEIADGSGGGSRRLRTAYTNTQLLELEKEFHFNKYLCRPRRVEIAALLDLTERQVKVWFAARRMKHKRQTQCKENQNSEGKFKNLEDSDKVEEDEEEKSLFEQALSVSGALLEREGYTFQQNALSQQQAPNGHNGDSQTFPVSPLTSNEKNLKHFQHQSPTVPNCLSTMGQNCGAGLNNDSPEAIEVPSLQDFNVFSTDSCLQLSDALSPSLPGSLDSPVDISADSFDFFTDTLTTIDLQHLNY

Hoxa2;Pbx1a [2] = biological target: T1, Hoxa2;Pbx1a (mouse?;, UniProt P31245;P41778 1-372;1-430, |); experiment: competition
T1 sequence (P31245 whole entry, one chain of several): as the sequence (P31245 whole entry Q188A/N189A, one chain of several) above, with A188Q, A189N counted along it

Pbx1a;Prep1 [3] = biological target: T2, Pbx1a;Prep1 (;, UniProt P41778;P55347 1-430;1-436, |); experiment: competition
T2 sequence 1: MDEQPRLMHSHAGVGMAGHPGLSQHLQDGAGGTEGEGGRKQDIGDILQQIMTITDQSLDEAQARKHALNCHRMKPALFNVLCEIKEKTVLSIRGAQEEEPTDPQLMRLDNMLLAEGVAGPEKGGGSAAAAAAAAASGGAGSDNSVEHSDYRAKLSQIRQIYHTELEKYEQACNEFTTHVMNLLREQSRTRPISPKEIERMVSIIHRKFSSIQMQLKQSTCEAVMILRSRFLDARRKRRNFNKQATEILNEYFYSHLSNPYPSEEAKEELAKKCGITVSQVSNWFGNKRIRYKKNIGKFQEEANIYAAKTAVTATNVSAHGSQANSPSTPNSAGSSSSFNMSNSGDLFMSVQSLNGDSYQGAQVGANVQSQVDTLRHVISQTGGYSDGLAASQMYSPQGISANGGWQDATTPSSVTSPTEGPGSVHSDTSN
T2 sequence 2: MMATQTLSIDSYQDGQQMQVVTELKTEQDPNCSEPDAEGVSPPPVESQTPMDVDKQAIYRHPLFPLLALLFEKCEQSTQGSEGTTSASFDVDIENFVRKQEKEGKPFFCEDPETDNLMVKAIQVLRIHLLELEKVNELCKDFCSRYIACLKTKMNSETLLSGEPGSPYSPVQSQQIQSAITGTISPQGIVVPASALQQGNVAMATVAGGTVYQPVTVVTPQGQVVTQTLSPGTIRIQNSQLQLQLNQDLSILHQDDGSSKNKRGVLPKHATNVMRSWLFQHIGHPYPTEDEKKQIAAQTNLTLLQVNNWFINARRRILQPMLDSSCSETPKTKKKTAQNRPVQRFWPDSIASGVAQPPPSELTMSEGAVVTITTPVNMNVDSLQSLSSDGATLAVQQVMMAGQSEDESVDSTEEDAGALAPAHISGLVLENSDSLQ

Hoxa2;Pbx1a [4] = biological target: T1, Hoxa2;Pbx1a; experiment: EMSA
Hoxa2 = Hoxa2 (UniProt P31245 1-372); experiment: EMSA
Sequence of Hoxa2 (P31245 whole entry): as the sequence (P31245 whole entry Q188A/N189A, one chain of several) above, with A188Q, A189N counted along it

Pbx1a;Prep1 [5] = biological target: T2, Pbx1a;Prep1; experiment: EMSA

Measured: binding result

Sequence of Hoxa2(QN-AA) (Hoxa2*) (P31245 whole entry Q188A/N189A): as the sequence (P31245 whole entry Q188A/N189A, one chain of several) above
Sequence of Hoxa1(WM-AA) (P09022 whole entry W203A/M204A): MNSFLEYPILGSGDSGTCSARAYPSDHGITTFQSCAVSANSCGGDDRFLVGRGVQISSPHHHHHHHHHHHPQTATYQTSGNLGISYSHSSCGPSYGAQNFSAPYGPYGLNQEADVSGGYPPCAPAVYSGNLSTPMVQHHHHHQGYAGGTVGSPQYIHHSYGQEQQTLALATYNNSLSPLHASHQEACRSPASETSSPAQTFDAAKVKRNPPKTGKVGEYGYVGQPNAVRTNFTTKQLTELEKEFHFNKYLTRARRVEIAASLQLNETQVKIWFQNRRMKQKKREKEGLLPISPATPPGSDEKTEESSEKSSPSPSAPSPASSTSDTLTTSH
Sequence of Hoxa1(WM-AA);Pbx1a (P09022 whole entry W203A/M204A, one chain of several): as the sequence (P09022 whole entry W203A/M204A) above
Sequence of Hoxa1 (P09022 whole entry): as the sequence (P09022 whole entry W203A/M204A) above, with A203W, A204M counted along it

B1: HRE (dsDNA)
DNA 1: TTTCAAAGTTCATCAATCAAGACCTCG
DNA 2: CGAGGTCTTGATTGATGAACTTTGAAA
no binding: Hoxa1(WM-AA);Pbx1a | Hoxa2(QN-AA) (Hoxa2*) | Hoxa1 | Hoxa1(WM-AA) | [1]

B2: comp* (unlabelled mutated HRE) (dsDNA)
DNA 1: TTTCAAAGTTGGTGGGGGAAGACCTCG
DNA 2: CGAGGTCTTCCCCCACCAACTTTGAAA
no binding: Hoxa2;Pbx1a [2] | Pbx1a;Prep1 [3]

B3: HRE* (mutated HRE) (dsDNA)
DNA 1: TTTCAAAGTTGGTGGGGGAAGACCTCG
DNA 2: CGAGGTCTTCCCCCACCAACTTTGAAA
no binding: Hoxa2;Pbx1a [4] | Hoxa2 | Pbx1a;Prep1 [5]
